Results reported in the supplement of paper PMC9732359.
± gives the uncertainty stated by the source.

assay: protein stability index of a GFP-peptide fusion (yeast GPS) (PSI 1-4); higher = more stable; sorted into four equal gates, so the index is relative within each strain; details: pdr5∆
How it was run: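 The protein stability index of a peptide was calculated by multiplying its read frequency in each gate by that gate's number and adding the products. The peptides were tiled 17-residue stretches of yeast proteins, fused downstream of GFP on a Cherry-expressing plasmid and carried in yeast as a pooled library. Mid-log cultures in leucine-free medium were sorted into four equal gates by GFP/Cherry ratio, and each gate's plasmids were PCR-amplified and Illumina-sequenced.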

| Sequence | protein stability index |
| --- | --- |
| DLINILEKKGFSEVYEY [LIN1] | 3.21 ± 0.29 |
| DLKAQFQELDSKKQRNN [RPN9] | 3.2 ± 0.08 |
| DLKEGLQDLSRYSRQFI [GRR1] | 2.24 ± 0.058 |
| DLKKLNLNVYIQVFEKP [CDC53] | 2.5 ± 0.17 |
| DLKLPPMDAYLKLNHII [SNU114] | 2.94 ± 0.18 |
| DLKPANIMVTIDGCVKI [SSN3] | 1.83 ± 0.16 |
| DLKSKADKLADMANEII [RRP6] | 3.17 ± 0.12 |
| DLKSKGLIPADATFAGH [FAS1] | 3.01 ± 0.074 |
| DLMDDMSDISDLDDLGF [RPN3] | 1.89 ± 0.081 |
| DLSMVPKMKDEEYDDDD [SNF2] | 3.22 ± 0.14 |
| DLSTLVHSSSPSTSSNM [GAL11] | 2.91 ± 0.069 |
| DLVHIKDSLDNTFVTRL [RPS4A] | 2.83 ± 0.091 |
| DLVLQILEDTATMSVFL [RRI2] | 2.36 ± 0.055 |
| DNETPSKKTSPKATSSA [YOR098C/NUP1] | 2.52 ± 0.049 |
| DNEVQRTMLELITQLDG [RPT1] | 3.21 ± 0.12 |
| DNKIDIYQIHIPYAAKL [RPB2] | 2.5 ± 0.11 |
| DNKINEIKLLEISCKQW [CSI1] | 2.43 ± 0.17 |
| DNLFGETESSVSNNEAN [SWI3] | 2.92 ± 0.089 |
| DNTVRTSANGIVQFTYG [RPO31] | 2.76 ± 0.1 |
| DNVDFILSNVDLAMANS [RPB3] | 3.08 ± 0.054 |
| DPDIPMTIDLEPIEESS [IRR1] | 3.45 ± 0.1 |
| DPDKLKPNDLVGVNKDS [RPT5] | 3.32 ± 0.13 |
| DPIWQHQSLGPDGLGEV [RET1] | 3.13 ± 0.11 |
| DPLVSLMMVEKVPDSTY [RPT6] | 2.93 ± 0.064 |
| DPQPFLKHVLQLIFRQQ [SNU114] | 2.02 ± 0.052 |
| DQAMEKKPSPQTIPIQI [YGR119C/NUP57] | 2.85 ± 0.24 |

| Sequence | protein stability index |
| --- | --- |
| DQIEKLREVVELPLLSP [RPT1] | 3 ± 0.054 |
| DQLAVSPEQIDASPDSL [YCS4] | 1.89 ± 0.081 |
| DQLEDLREHFKNTEEGK [QCR6] | 3.51 ± 0.14 |
| DQLSTISMILRNISFSD [SWI1] | 2.44 ± 0.072 |
| DQWYCIDKLEDLSRIMD [ITC1] | 2.64 ± 0.22 |
| DRDALSGWGAVVYIIKK [PUP3] | 2.96 ± 0.063 |
| DRINYTETALMNLKKEL [SRB5] | 3.28 ± 0.16 |
| DRMAKYLHIRDKILQLN [PGD1] | 2.01 ± 0.079 |
| DRSASRAVFLFRCKETH [RPC82] | 3.07 ± 0.15 |
| DSEKRNKYAAMLTSENA [RRP45] | 3.02 ± 0.063 |
| DSGRGAPLAKVVFRDPY [RPL2A] | 2.83 ± 0.13 |
| DSIIDNIVKLCFVHRYK [IRR1] | 1.95 ± 0.042 |
| DSRKNREQSSNDSETHT [BRN1] | 3.34 ± 0.19 |
| DSSSNTYRSRAQQVPPY [SIN4] | 2.88 ± 0.17 |
| DSTAVALEEGLNEEAVI [YJL039C/NUP192] | 3.12 ± 0.04 |
| DSTSHNNGSSDKSLDSS [MED1] | 3.11 ± 0.067 |
| DSVTTETGKLLSGLAQR [BRN1] | 2.87 ± 0.099 |
| DSYLDADKELSFEINVK [BRR2] | 3.03 ± 0.041 |
| DTADEAKTLIPSLNNKI [RPB4] | 3.15 ± 0.078 |
| DTAPKPNIVEIDLDNDE [DLS1] | 3.4 ± 0.058 |
| DTAVKTAETGYIQRRLV [RPO21] | 2.5 ± 0.069 |
| DTFGEGIIITDQSNVQY [BRR2] | 3.21 ± 0.13 |
| DTFYMNVESVGSIPVDQ [RPB3] | 2.43 ± 0.056 |
| DTICQSIQEQIQEFQGN [SNF5] | 3.44 ± 0.1 |
| DTKNLYVIKALQSLTSK [RPS10A] | 1.95 ± 0.077 |
| DTKNSKSESPSEVLVDT [ISW2] | 3.12 ± 0.07 |

| Sequence | protein stability index |
| --- | --- |
| DTLKDISTSFCFICLLH [BRN1] | 2.44 ± 0.072 |
| DTRSTQGPIVADKNCAK [PUP1] | 3.59 ± 0.12 |
| DTTVPKRLGPKRANNIR [RPS6A] | 3.68 ± 0.11 |
| DTVIIFDTDWNPHQDLQ [SNF2] | 3.1 ± 0.05 |
| DVDPIELVVFLPALCKK [RPL8A] | 2.8 ± 0.089 |
| DVIATEPQGAVTHMDQI [SMD3] | 2.83 ± 0.084 |
| DVLINELLDQVTLGREG [CDC53] | 3.1 ± 0.073 |
| DVQKSSDSSSEDEVKVE [YLR335W/NUP2] | 2.87 ± 0.092 |
| DVSPLRRVNQAIALLTI [RPS5] | 2.05 ± 0.077 |
| DVVTREYTINLHKRLHG [RPL31A] | 2.55 ± 0.09 |
| DWEKYKAPLEDDDKKPD [RPT1] | 3.56 ± 0.19 |
| DWQMMTSPVTGATEKRK [CSL4] | 2.03 ± 0.11 |
| DWVRFLALALGILYMGQ [RPN1] | 1.45 ± 0.086 |
| DYAQLDHLVSSIPMGGQ [ARP9] | 2.36 ± 0.071 |
| DYIKDEQRHLKRELKRA [RPT3] | 2.06 ± 0.056 |
| DYLFHLLISLNILFSLW [YLR018C/POM34] | 1.34 ± 0.036 |
| DYNFKYGIPLEFYNEMH [PRP8] | 3.08 ± 0.091 |
| DYYQSIYAKYGAKGSTL [FAS2] | 2.79 ± 0.07 |
| EAAAVRDLSEASVYPEY [RPS26A] | 2.53 ± 0.082 |
| EAASITRKSLNNAVRFS [ECM29] | 2.88 ± 0.084 |
| EAKDAIIELENINAKME [YIL149C/MLP2] | 3.12 ± 0.099 |
| EALAFTSLVANENDKIY [YDL116W/NUP84] | 2.4 ± 0.052 |
| EALLRSLLDAEEERRKK [SNF2] | 2.62 ± 0.094 |
| EAQANLLTAKHGMTLRE [RPO21] | 3.11 ± 0.099 |
| EASSLGYLDDSEILIIS [IRR1] | 1.85 ± 0.037 |
| EASTVPWGDYLQLETPA [BRR2] | 2.13 ± 0.16 |

| Sequence | protein stability index |
| --- | --- |
| EAVELPLVQADLYEQIG [RPT3] | 2.81 ± 0.24 |
| ECYKQLFLTAPDSCNMQ [YCS4] | 2.21 ± 0.16 |
| EDAKLKTDLELLVERLK [RPN1] | 1.19 ± 0.049 |
| EDAKYVINLKQIAKFVV [RPT1] | 2.4 ± 0.2 |
| EDDEFEDFPIDTWANGE [SEM1] | 3.26 ± 0.11 |
| EDEEEEEEVTDQLEDLR [QCR6] | 3.52 ± 0.28 |
| EDFLDKSYYLNTVMLQG [AAR2] | 2.24 ± 0.097 |
| EDFLHFIVAEYIQQKKV [SRB4] | 2.79 ± 0.078 |
| EDFQKRQQKLLEDQQRQ [SWI1] | 3.16 ± 0.051 |
| EDLLECLDRCKEQYNRY [MTR3] | 3.46 ± 0.08 |
| EDMIDQVSKKLSSIEAS [SMC3] | 2.54 ± 0.15 |
| EDVVAISSRTFGQRAVL [RPS0A] | 3.03 ± 0.056 |
| EEAPAPTPAASAPAPAA [FAS2] | 2.95 ± 0.076 |
| EEDYNEFNSIDRVIFRV [PRP8] | 3.17 ± 0.11 |
| EEEYDETHETNISNAKL [YAR002W/NUP60] | 3.21 ± 0.09 |
| EEIPINSSEQESDYEPN [SIR3] | 3.15 ± 0.067 |
| EEISRLQRDLIQTKEQV [YIL149C/MLP2] | 2.98 ± 0.15 |
| EEIVSNSSRFSDPMLQR [YCS4] | 2.95 ± 0.082 |
| EEKQKSYKFPRGTTAVL [PUP1] | 3.11 ± 0.13 |
| EELFTQLFHSMSIVFGD [UBP6] | 3.35 ± 0.087 |
| EELINAAKGSSTSYAIK [RPS5] | 1.88 ± 0.051 |
| EELRGQQTEHETEIKDL [SMC4] | 3.43 ± 0.094 |
| EENFEATRTLVASIQND [YCG1] | 3.24 ± 0.11 |
